For data set [1], the target named is Tsa1^T44S (S. cerevisiae) (UniProt P34760). Description: SEC; analytical HPLC, Phenomenex BioSep-SEC-S3000, 50 uM enzyme, 100 mM Tris-HCl pH 7.4, 50 mM NaCl, 1 mL/min; samples reduced with 5 mM TCEP for 30 min at 25 C; dimers to decamer.
Data set [2] shares this target. The experiment in a line: SEC; analytical HPLC, Phenomenex BioSep-SEC-S3000, 50 uM enzyme, 100 mM Tris-HCl pH 7.4, 50 mM NaCl, 1 mL/min; samples reduced with TCEP and then oxidised (disulfide) with 1.2 molar equivalents of H2O2 for 30 min at 25 C; dimers to decamer. On the technique in general: In gel filtration, larger molecules generally elute earlier.
Data set [3] concerns the target Tsa1^T44A (S. cerevisiae) (UniProt P34760). Description: SEC; analytical HPLC, Phenomenex BioSep-SEC-S3000, 50 uM enzyme, 100 mM Tris-HCl pH 7.4, 50 mM NaCl, 1 mL/min; samples reduced with 5 mM TCEP for 30 min at 25 C; dimers to decamer.
Data set [4] has as its target Tsa1^WT (typical 2-Cys peroxiredoxin Tsa1 from S. cerevisiae) (S. cerevisiae) (UniProt P34760). The description is as above.
Data set [5] concerns the molecule itself. Described as above.
Data set [6] concerns the molecule itself. The experiment in a line: SEC; analytical HPLC, Phenomenex BioSep-SEC-S3000, 50 uM enzyme, 100 mM Tris-HCl pH 7.4, 50 mM NaCl, 1 mL/min; samples reduced with TCEP and then oxidised (disulfide) with 1.2 molar equivalents of H2O2 for 30 min at 25 C; dimers to decamer.
Substrate in data set [7]: CC(C)(OO)c1ccccc1
The experiment in a line: Trx system coupled assay, NADPH oxidation. The note with it: Trx1 2 μM, TrxR1 0.3 μM, NADPH 150 μM, HEPES pH 7.4, 30 °C. Format: biochemical, Saccharomyces cerevisiae. The source says: Trx system coupled assay, NADPH oxidation on Tsa1 (Tsa1^WT) | In the case of cumene hydroperoxide (CHP) reduction, Tsa1^WT and Tsa1^T44S also presented similar enzymatic parameters

Substrate in data set [8]: CC(C)(OO)c1ccccc1
Description: Trx system coupled assay, NADPH oxidation. The data set is classed as biochemical, Saccharomyces cerevisiae. The settings on record: Trx1 2 μM, TrxR1 0.3 μM, NADPH 150 μM, HEPES pH 7.4, 30 °C. This is another data set of the same source.

The record followed here is PMC5024103, “Catalytic Thr or Ser Residue Modulates Structural Switches in 2-Cys Peroxiredoxin by Distinct Mechanisms” (Scientific Reports, 2016).

On to “Tsa1^T44S (from UniProt P34760 1-196) (enzyme)”, for which the stoichiometry N in data set [1] and in data set [2] was 10 throughout.
For “Tsa1^T44A (from UniProt P34760 1-196) (enzyme)”, in data set [3], the stoichiometry N (commonly the number of molecules, sites or subunits per partner or assembly) is 10.
“Tsa1^WT (typical 2-Cys peroxiredoxin Tsa1 from S. cerevisiae) (from UniProt P34760 1-196) (enzyme)” gave a stoichiometry N in data set [4] of 10.

B1: Tsa2^WT (typical 2-Cys peroxiredoxin Tsa2 from S. cerevisiae) (enzyme)
chain: MVAEVQKQAPPFKKTAVVDGIFEEISLEKYKGKYVVLAFVPLAFSFVCPTEIVAFSDAAKKFEDQGAQVLFASTDSEYSLLAWTNLPRKDGGLGPVKVPLLADKNHSLSRDYGVLIEKEGIALRGLFIIDPKGIIRHITINDLSVGRNVNEALRLVEGFQWTDKNGTVLPCNWTPGAATIKPDVKDSKEYFKNANN
notes: Tsa2, typical 2-Cys peroxiredoxin of Saccharomyces cerevisiae (86% identity with Tsa1; Ser45 in place of Thr44 of Tsa1); Decamer in both redox states by SEC; source: E. coli BL21 (DE3), pPROEx/tsa2, purified (IMAC on HisTrap, PD10 desalting); not shown: His tag (from the vector pPROEx); copies: 10
Consider B1, for which the “stoichiometry N” value in data set [5] and in data set [6] was 10 in each case.

B2: Tsa1 (Tsa1^WT) (Saccharomyces cerevisiae S288C) (protein)
chain: MVAQVQKQAPTFKKTAVVDGVFDEVSLDKYKGKYVVLAFIPLAFTFVCPTEIIAFSEAAKKFEEQGAQVLFASTDSEYSLLAWTNIPRKEGGLGPINIPLLADTNHSLSRDYGVLIEEEGVALRGLFIIDPKGVIRHITINDLPVGRNVDEALRLVEAFQWTDKNGTVLPCNWTPGAATIKPTVEDSKEYFEAANK
notes: pET15b/Tsa1, His-tagged (HisTrap IMAC); homodimer ~48 kDa, decamer ~240 kDa
For B2, in data set [7], the Km (usually the concentration of substrate that gives half-maximal velocity) was determined as 8.80 ± 0.05 µM; the kcat (in general, the maximal rate divided by the concentration of active sites) was found to be 0.7 ± 0.1 s⁻¹; the kcat/Km (commonly the second-order rate constant that governs catalysis at low substrate concentration) came to 82000 ± 11000 M⁻¹ s⁻¹.

B3: Tsa1^T44V (enzyme)
chain: MVAQVQKQAPTFKKTAVVDGVFDEVSLDKYKGKYVVLAFIPLAFVFVCPTEIIAFSEAAKKFEEQGAQVLFASTDSEYSLLAWTNIPRKEGGLGPINIPLLADTNHSLSRDYGVLIEEEGVALRGLFIIDPKGVIRHITINDLPVGRNVDEALRLVEAFQWTDKNGTVLPCNWTPGAATIKPTVEDSKEYFEAANK
Take B3: the “stoichiometry N” value in data set [6] is 2.

B4: Tsa1^S78D (enzyme)
chain: MVAQVQKQAPTFKKTAVVDGVFDEVSLDKYKGKYVVLAFIPLAFTFVCPTEIIAFSEAAKKFEEQGAQVLFASTDSEYDLLAWTNIPRKEGGLGPINIPLLADTNHSLSRDYGVLIEEEGVALRGLFIIDPKGVIRHITINDLPVGRNVDEALRLVEAFQWTDKNGTVLPCNWTPGAATIKPTVEDSKEYFEAANK
Regarding B4, the “stoichiometry N” value in data set [5] and in data set [6] was 2 each time.

B5: Tsa1 (Tsa1^WT) (Saccharomyces cerevisiae S288C; T45S) (protein)
chain: MVAQVQKQAPTFKKTAVVDGVFDEVSLDKYKGKYVVLAFIPLAFSFVCPTEIIAFSEAAKKFEEQGAQVLFASTDSEYSLLAWTNIPRKEGGLGPINIPLLADTNHSLSRDYGVLIEEEGVALRGLFIIDPKGVIRHITINDLPVGRNVDEALRLVEAFQWTDKNGTVLPCNWTPGAATIKPTVEDSKEYFEAANK
notes: as for B2
On to B5, for which, in data set [7], the Km was found to be 9.9 ± 1.2 µM, the kcat turned out to be 0.7 ± 0.1 s⁻¹ and the kcat/Km was found to be 75000 ± 9000 M⁻¹ s⁻¹.

B6: Tsa1^Y77A (enzyme)
chain: MVAQVQKQAPTFKKTAVVDGVFDEVSLDKYKGKYVVLAFIPLAFTFVCPTEIIAFSEAAKKFEEQGAQVLFASTDSEASLLAWTNIPRKEGGLGPINIPLLADTNHSLSRDYGVLIEEEGVALRGLFIIDPKGVIRHITINDLPVGRNVDEALRLVEAFQWTDKNGTVLPCNWTPGAATIKPTVEDSKEYFEAANK
As for B6, the “stoichiometry N” value in data set [5] and in data set [6] was 2 in each case.

B7: Tsa1 (Tsa1^WT) (Saccharomyces cerevisiae S288C; T45A) (protein)
chain: MVAQVQKQAPTFKKTAVVDGVFDEVSLDKYKGKYVVLAFIPLAFAFVCPTEIIAFSEAAKKFEEQGAQVLFASTDSEYSLLAWTNIPRKEGGLGPINIPLLADTNHSLSRDYGVLIEEEGVALRGLFIIDPKGVIRHITINDLPVGRNVDEALRLVEAFQWTDKNGTVLPCNWTPGAATIKPTVEDSKEYFEAANK
notes: as for B2
B7: the Km in data set [8] was 300 µM.
